Assay results as given in paper PMC4204924.

Biological target: thrombin (UniProt P00734;P00734 328-363;364-622)
Experiment: competition

B1: thrombin aptamer (TA) (structured_DNA)
DNA: GGTTGGTGTGGTTGGTTT
  binding result: binds
